Test results taken from patent US20220119534A1 (DRAGONFLY THERAPEUTICS, published 2022).
Substitutions are numbered along the chain they refer to. Names and notes keep the numbering of the source.

Legend:
Experiment in all cases: SPR, summary of FcγR affinities
[1] = target: T1, Human CD16a F158 (FcγRIIIa F158) (human, UniProt P08637 17-208, biotinylated)
T1 construct: Bought recombinant receptor; also called hFcγRIIIa F158
Experimental: (§1) Human and cynomolgus CD64, high and low affinity alleles of CD16a (V158 and F158, respectively), two alleles of CD32a (H131 and R131), CD16b, CD32b and cynomolgus CD16 were captured via biotin on a primed (according to the manufacturers instruction) Biacore chip. […] Due to irreversibility of streptavidin-biotin interaction, the capture step for all receptors except FcγRI (CD64) was performed just once prior to the start of the binding experiment. hCD64 and cyno CD64 capture on the CAP chip surface was performed during each cycle in accordance with the manufacturer's instructions for the Biotin CAPture kit.
(§2) Detailed description of each individual receptor binding is presented below.

Human CD64 (FcγRI) = target: T2, Human CD64 (FcγRI) (human, UniProt P12314 16-288, biotinylated)
T2 construct: Bought recombinant receptor; also called hFcγRI; Human FcγRI
T2 sequence (P12314 16-288 limits assumed): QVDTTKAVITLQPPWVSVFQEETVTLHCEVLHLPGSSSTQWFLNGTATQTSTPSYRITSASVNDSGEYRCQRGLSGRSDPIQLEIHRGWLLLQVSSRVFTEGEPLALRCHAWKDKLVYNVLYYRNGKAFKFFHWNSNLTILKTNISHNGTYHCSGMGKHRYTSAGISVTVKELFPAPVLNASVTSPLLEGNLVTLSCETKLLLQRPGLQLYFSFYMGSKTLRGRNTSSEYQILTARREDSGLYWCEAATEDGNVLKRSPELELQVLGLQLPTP
Experimental: as §1, §2

Human CD32b (FcγRIIb) = target: T3, Human CD32b (FcγRIIb) (human, UniProt P31994 46-217, limits assumed, biotinylated)
T3 construct: Bought recombinant receptor; also called hFcγRIIb; CD32b (FcγR2b)
T3 sequence (looked up): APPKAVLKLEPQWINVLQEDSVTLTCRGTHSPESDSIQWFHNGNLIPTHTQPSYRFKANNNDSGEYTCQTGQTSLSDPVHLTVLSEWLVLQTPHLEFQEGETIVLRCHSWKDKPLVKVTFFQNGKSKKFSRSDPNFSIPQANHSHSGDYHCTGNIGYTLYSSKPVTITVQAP
Experimental: as §1, §2

[2] = target: T4, Human CD32a H131 (FcγRIIa H131) (human, UniProt P12318 36-218, limits assumed, biotinylated)
T4 construct: Bought recombinant receptor; also called hFcγRIIa H131; FcgRIIa H131
T4 sequence (looked up): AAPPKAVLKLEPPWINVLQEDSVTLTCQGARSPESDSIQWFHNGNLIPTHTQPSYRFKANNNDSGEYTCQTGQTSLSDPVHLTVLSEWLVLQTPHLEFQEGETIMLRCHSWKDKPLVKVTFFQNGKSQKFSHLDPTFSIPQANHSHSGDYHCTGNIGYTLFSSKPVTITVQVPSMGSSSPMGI
Experimental: as §1, §2

[3] = target: T5, Human CD16a V158 (FcγRIIIa V158) (human, UniProt P08637 17-208, biotinylated)
T5 construct: Bought recombinant receptor; also called hCD16aV; hFcγRIIIa V158
T5 sequence (P08637 17-208 F176V limits assumed): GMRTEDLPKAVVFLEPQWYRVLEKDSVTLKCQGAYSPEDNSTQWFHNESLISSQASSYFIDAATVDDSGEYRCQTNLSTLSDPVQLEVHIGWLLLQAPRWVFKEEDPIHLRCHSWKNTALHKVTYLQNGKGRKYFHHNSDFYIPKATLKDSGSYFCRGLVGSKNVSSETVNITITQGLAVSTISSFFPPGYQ
Experimental: as §1, §2

[4] = target: T6, Human CD32a R131 (FcγRIIa R131) (human, UniProt P12318 36-218, limits assumed, biotinylated)
T6 construct: Bought recombinant receptor; also called hFcγRIIa R131; FcgRIIa R131
T6 sequence (looked up): T4 sequence (looked up) with H132R
Experimental: as §1, §2

T1 sequence (P08637 17-208 limits assumed): as the sequence (P08637 17-208 F176V limits assumed) above, with V160F counted along it

B1: AB0089 TriNKET (bispecific antibody, human IgG1, kappa)
chain: QLQLQESGPGLVKPSETLSLTCTVSGFSLTNYGLHWIRQPPGKCLEWIGVIWVGGATDYNPSLKSRVTISVDTSKNQFSLKLSSVQAADTAVYYCAKGDYGDTLDYWGQGTLVTVSSGGGGSGGGGSGGGGSGGGGSDIQMTQSPSSLSASVGDRVTITCHASQNINFWLSWYQQKPGKAPKLLIYEASNLHTGVPSRFSGSGSGTDFTLTISSLQPEDFATYYCQQSHSYPLTFGCGTKLEIKGSDKTHTCPPCPAPELLGGPSVFLFPPKPKDTLMISRTPEVTCVVVDVSHEDPEVKFNWYVDGVEVHNAKTKPREEQYNSTYRVVSVLTVLHQDWLNGKEYKCKVSNKALPAPIEKTISKAKGQPREPRVYTLPPCRDELTKNQVSLTCLVKGFYPSDIAVEWESNGQPENNYKTTPPVLVSDGSFTLYSKLTVDKSRWQQGNVFSCSVMHEALHNHYTQKSLSLSPG
heavy: EVQLVESGGGLVKPGGSLRLSCAASGFTFSSYSMNWVRQAPGKGLEWVSSISSSSSYIYYADSVKGRFTISRDNAKNSLYLQMNSLRAEDTAVYYCARGAPIGAAAGWFDPWGQGTLVTVSSASTKGPSVFPLAPSSKSTSGGTAALGCLVKDYFPEPVTVSWNSGALTSGVHTFPAVLQSSGLYSLSSVVTVPSSSLGTQTYICNVNHKPSNTKVDKKVEPKSCDKTHTCPPCPAPELLGGPSVFLFPPKPKDTLMISRTPEVTCVVVDVSHEDPEVKFNWYVDGVEVHNAKTKPREEQYNSTYRVVSVLTVLHQDWLNGKEYKCKVSNKALPAPIEKTISKAKGQPREPQVCTLPPSRDELTENQVSLTCLVKGFYPSDIAVEWESNGQPENNYKTTPPVLDSDGSFFLYSWLTVDKSRWQQGNVFSCSVMHEALHNHYTQKSLSLSPG
light: DIQMTQSPSSVSASVGDRVTITCRASQGISSWLAWYQQKPGKAPKLLIYAASSLQSGVPSRFSGSGSGTDFTLTISSLQPEDFATYYCQQGVSFPRTFGGGTKVEIKRTVAAPSVFIFPPSDEQLKSGTASVVCLLNNFYPREAKVQWKVDNALQSGNSQESVTEQDSKDSTYSLSSTLTLSKADYEKHKVYACEVTHQGLSSPVTKSFNRGEC
notes: F3' format heterodimer of three chains; human IgG1 Fc with EW-RVT and Y349C/S354C mutations; also called AB0089 Lot AB0089-002; CLEC12A TriNKET AB0089
Binder B1 has a Kd [1] of 1270 nM, a Kd (Human CD64 (FcγRI)) of 5.1 nM and a Kd (Human CD32b (FcγRIIb)) of 6270 nM. For the same binder, the Kd [2] was 900 nM, the Kd [3] was 333 nM and the Kd [4] was 1250 nM.
